Laboratory results reported in PMC6914384.
pKd: −log10 of the molar value.

Key:
[1] = biological target: pIRF3 (IRF3 1-427 phosphorylated in vitro by TBK1) (UniProt Q14653); assay: SEC
[2] = biological target: pSTAT1ΔNC (136-713), Tyr701-phosphorylated (UniProt P42224); assay: SEC
[3] = biological target: pSTAT1ΔN (136-748), Tyr701-phosphorylated (UniProt P42224); assay: SEC
[4] = biological target: p300 BRP module (bromodomain-RING-PHD), residues 1048-1282 (UniProt Q09472); assay: ITC
p300 BRP module (bromodomain-RING-PHD), residues 1048-1282, sequence (Q09472 1048-1282): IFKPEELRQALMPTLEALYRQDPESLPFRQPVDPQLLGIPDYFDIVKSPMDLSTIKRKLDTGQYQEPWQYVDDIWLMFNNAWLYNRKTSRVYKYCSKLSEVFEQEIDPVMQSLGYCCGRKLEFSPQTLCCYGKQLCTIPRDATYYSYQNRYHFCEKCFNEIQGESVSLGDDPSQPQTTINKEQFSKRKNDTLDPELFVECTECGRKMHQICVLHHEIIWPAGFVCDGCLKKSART

**Q.** With “pIRF3 (IRF3 1-427 phosphorylated in vitro by TBK1) (from UniProt Q14653 1-427) (natural protein)” as the substance, how does the stoichiometry N [1] read?
**A.** The stoichiometry N was 2.

**Q.** For “pSTAT1ΔNC (136-713), Tyr701-phosphorylated (from UniProt P42224 136-713) (domain or fragment)”, which stoichiometry N [2] is on record?
**A.** The stoichiometry N was 2.

**Q.** For “pSTAT1ΔN (136-748), Tyr701-phosphorylated (from UniProt P42224 136-748) (domain or fragment)”, which stoichiometry N [3] is on record?
**A.** The stoichiometry N was 2.

**Q.** How did the pKd [4] turn out when H4 K8acK12ac (4-24) peptide was run?
**A.** Its pKd is 4.05.

**Q.** And the stoichiometry N [4]?
**A.** Its stoichiometry N is 1.01.
